In the DeepSol protein solubility set:

Test: soluble on expression in E. coli; label from the status in PepcDB or PDB records

| Sequence | soluble on expression in E. coli |
| --- | --- |
| GHMVTMSTEPVSASDKYQKISQLEHILKRPDTYIGSVETQEQLQWIYDEETDCMIEKNVTIVPGLFKIFDEILVNAADNKVRDPSMKRIDVNIHAEEHTIEVKNDGKGIPIEIHNKENIYIPEMIFGHLLTSSNYDDDEKKVTGGRNGYGAKLCNIFSTEFILETADLNVGQKYVQKWENNMSICHPPKITSYKKGPSYTKVTFKPDLTRFGMKELDNDILGVMRRRVYDINGSVRDINVYLNGKSLKIRNFKNYVELYLKSLEKKRQLDNGEDGAAKSDIPTILYERINNRWEVAFAVSDISFQQISFVNSIATTMGGTHVNYITDQIVKKISEILKKKKKKSVKSFQIKNNMFIFINCLIENPAFTSQTKEQLTTRVKDFGSRCEIPLEYINKIMKTDLATRMFEIADANEENALK | soluble |
| TSDTPALLYIHGLNSSAQSKKACQLIALMKSLGLADRLQVPELHHHPRQAMLQLESAIGALGRPLLVGSSLGGYYATHLAQRHGLKAVLINPAVNPHQLFDGFLGMQQNLYTGEQWQLTEDHIKALAELEVPAPQDPQQFQVWLQTGDETLDYRRAEKFYRACALRIQAGGDHSFQGFAERLPALLSFAGFAPDLLQ | not soluble |
| MTTRKPFIICDFDGTITMNDNIINIMKTFAPPEWMALKDGVLSKTLSIKEGVGRMFGLLPSSLKEEITSFVLEDAKIREGFREFVAFINEHEIPFYVISGGMDFFVYPLLEGIVEKDRIYCNHASFDNDYIHIDWPHSCKGTCSNQCGCCKPSVIHELSEPNQYIIMIGDSVTDVEAAKLSDLCFARDYLLNECREQNLNHLPYQDFYEIRKEIENVKEVQEWLQNKNAGESSLKLEHHHHHH | soluble |
| MGSDKIHHHHHHMSTSSGERVTVGTATASPGEAVRGAIPAGDLAGGVKVEIPVVVINGGGAGPTFWVNAAIHGDEPEGPLACALAVKQIDPAKLRGTVVMVPCVNPLAFSAAERGNPLDTFTYDMNRIYPGKPDGYFSDRVADAHWQAMKDVADLEISIHSGGAHSFLDKAIFVDERPESVELAKAMGEGWGCIMSNFTKAGSPMAAMNNAGKVDITVELGGRSYTSPDRFRYVGEELAKSILNICYHYDMLDGQATYPTDATIGQQEALLAPASGIFLPEPGVDFLTMMDNGTKIARIINIFGDEVGALHAPARGMFFGLRALPNVNQGDWCCFFNKVEGPRD | not soluble |
| KRRLEVKGEVNSITVYDDFAHHPEAILATLTALRDKVGGGVRILAVLEPRSNTMKMGVHKDDIAPALGRADAVFMLQPEQLSWEVADIANQCVQPAYWNANLDRLVDMIVAKAQPTDHILVMSNGSFGGIHQKILDKLKLK | not soluble |
| MSQQPGVLPENMKRYMGRDAQRMNILAGRIIAETVRSTLGPKGMDKMLVDDLGDVVVTNDGVTILREMSVEHPAAKMLIEVAKTQEKEVGDGTTTAVVVAGELLRKAEELLDQNVHPTIVVKGYQAAAQKAQELLKTIACEVGAQDKEILTKIAMTSITGKGAEKAKEKLAEIIVEAVSAVVDDEGKVDKDLIKIEKKSGASIDDTELIKGVLVDKERVSAQMPKKVTDAKIALLNCAIEETASEMLKDMVAEIKASGANVLFCQKGIDDLAQHYLAKEGIVAARRVKKSDMEKLAKATGANVITNIKDLSAQDLGDAGLVEERKISGDSMIFVEECKHPKAVTMLIRGTTEHVIEEVARAVDDAVGVVGCTIEDGRIVSGGGSTEVELSMKLREYAEGISGREQLAVRAFADALEVIPRTLAENAGLDAIEILVKVRAAHASNGNKCAGLNVFTGAVEDMCENGVVEPLRVKTQAIQSAAESTEMLLRIDDVIAAEKLRGAPDMGDMGGMPGMGGMPGMM | soluble |
| MGSDKIHHHHHHAQSLKDLLNKDNISKVVNAITGTPETIDMTGTWTYSGSAVEFESDNLLMKAGGAAAATMAENKLNEQLSKVGIKEGQMSFTFNADSTFTSTVGKKKLSGTYSYNASTKQVDLKYLKLLNLHAKVNCTSNSMDLLFNSDKLLKLMTFLGSKTNSTALKTVSSLAENYDGMMLGFGLKK | not soluble |
| MGSDKIHHHHHHAVDAKLLEMLRANGSINQAQYNELQGDLAKETKEKADQKAQSERMSSFEQKVAWAAKTQIKGDVRLRYEDVNVDDPNSSSGNQDRQRVRARVGFYSEINPQVDAGVRIATGSSADRRSTNQSFDNYFDKKSLWVDLAYLDWHPTAVPNLHLIGGKMQQPWVSMGDIIWDSDINPEGVAATYKADLGGAEVFASAGQYTLKDNVDGDGVQYKHDAQVYHGQLGAKFAPADVLKLTVGASIYGYDNDKEAAILQSFGNTTNEFNLVEGFGQIDFTGLAIPLSAYGQYVKNTDSTDGEDQAWLAGLKTKMGAWSLDYNYRDVQRNAVVSLFTDSDFGNGYTGSRGHKFKVGYEIDKNFSLGAAYLMAKTDLSQLPNSNADVDTLQVDLEAKF | not soluble |
